Test [1] deals with T1, human complement C3b protein (human, UniProt P01024 23-667; P01024 749-1663).
T1 construct: Purified plasma C3b (Complement Technology, Quidel); Depending on the assay it was captured by an anti-C3d antibody, coated, biotinylated or coupled to beads; also called human C3b; huC3b
The experiment in a line: AlphaScreen bead proximity, C3b-Acceptor beads pre-incubated with antibody, then biotinylated fH and SA-Donor beads; blocked ligand: fH [C].

Test [2] addresses T2, cynomolgus complement C3b protein (cynomolgus monkey (Macaca fascicularis)).
T2 construct: also called cyno C3b; cynoC3b
Description: SPR (Biacore T100), C3b captured by anti-C3d antibody, IgG as analyte, 1:1 model.

For test [3], the target named is T1, human complement C3b protein. The test is described as above.
Test [4] shares this target. The experiment in a line: ELISA, C3b captured on coated anti-C3d antibody, antibody titrated (axis: IgG concentration). How it is done: The C3b antibodies were examined to determine whether they were selective for binding to C3b relative to the C3b precursor C3. Briefly, binding selectivity for C3b was determined by performing the following steps. Coat Maxisorp plate Nunc (442404) with anti-C3d rabbit monoclonal (abcam 17453) at 2 μg/ml in Carbonate Buffer at 100 μl/well. Seal plates and incubate at 4° C. overnight. Aspirate plates and wash 3 times with PBS/0.5% Tween 20. Block plates with Diluent (PBS, 4% BSA Fraction V (Fisher ICN16006980), 0.1% Tween 20 (Sigma P1379), 0.1% Triton X-100 (Sigma P234729)) and incubate for 2 h at room temperature or overnight at 4° C. Then wash plates once with PBS/0.5% Tween 20. Dilute purified C3b (complement technologies A114 lot 21) and C3 (complement technologies A113c) at 1 μg/ml in diluent and plate 100 μl per well. Incubate for 1 h at room temperature. Then wash 3 times with PBS/0.5% Tween 20.
Dilute Fabs at 100 nM and subsequent dilutions (or higher concentration) in diluent and plate 100 μl per well. Incubate at room temperature for 1 h. Wash plates 3 times with PBS/0.5% Tween 20. Add 100 μl/well of anti-Histidine-HRP monoclonal detection antibody at 1:400 in diluent and incubate at room temperature for 1 h. Then wash 4 times with PBS/0.5% Tween 20. […] Add 50 μl of Stop solution (2N Sulfuric Acid) to each well and read plate at 450 nm and correct for plastic reading at 570 nm.

The target is the same in test [5].
The target is the same in test [6]. Description: AlphaScreen bead proximity, C3b-Acceptor beads pre-incubated with antibody, then biotinylated fB(D24G/N260D) and SA-Donor beads; blocked ligand: fB [A]. How it is done:
(§1) In brief, purified C3b and fP were conjugated to unconjugated acceptor or donor beads (PerkinElmer) using AminoLink Reductant (Pierce) during a 48 h incubation at room temperature. Beads were quenched using Carboxymethoxylamine Hemihydrochloride (Aldrich), and purified by centrifugation at 13000 rpm and three washes with 0.1M TBST. Purified fB(D24G/N260D) and fH were biotinylated during a 30 min incubation with 20-fold molar excess of NHS-Chromogenic-biotin (Pierce) at room temperature, and purified using Zeba 0.5 ml desalting columns (Pierce).
(§2) For C3b-C3b and C3b-fP proximity, Fabs or IgGs respectively were pre-incubated with C3b-Acceptor beads (20 μg/ml) for 60 min at room temperature. C3b-Donor beads or fP-Donor beads (20 μg/ml) were then added, and the plate was incubated overnight at room temperature before reading. For C3b-fB and C3b-fH proximity, antibodies were pre-incubated with C3b-Acceptor beads (20 μg/ml) for 60 minutes at room temperature. Biotinylated fB(D24G/N260D) or fH were then added, and incubated for 60 minutes at room temperature. SA-Donor beads were then added (20 μg/ml) and the plate was incubated overnight at room temperature before reading. Plates were read on the BMG Pherastar (ex=680, em=520-620).

Test [7] concerns the target T3, human C3d (human, UniProt P01024 1002-1303).
T3 construct: domain: C3d
Description: C3d binding ELISA, IgG titrated from about 0.006 to 100 nM.

Test [8] has as its target T1, human complement C3b protein. Description: AlphaScreen bead proximity, C3b-Acceptor beads pre-incubated with antibody, then C3b-Donor beads; inhibition of C3b-C3b dimer formation; unit from the axis [Antibody] nM [D]. Here is the method: as §1, §2
Test [9] has the same target. Description: cell-based or functional assay.
Test [10] deals with T2, cynomolgus complement C3b protein. The experiment in a line: solution equilibrium titration (SET), ECL detection, Fab.
For test [11], the target named is T1, human complement C3b protein. The test is described as above.
For test [12], the target named is T2, cynomolgus complement C3b protein. The experiment in a line: SPR (Biacore), C3b captured by anti-C3d antibody, Fab as analyte.
Test [13] has as its target T1, human complement C3b protein. Described as above.
Test [14] deals with T2, cynomolgus complement C3b protein. Description: cell-based or functional assay.
Test [15] deals with T1, human complement C3b protein. The experiment in a line: cell-based or functional assay. The source holds these as a separate data set.
Test [16] deals with T4, human C5 (human, UniProt P01031 19-673; P01031 678-1676).
T4 construct: Captured by an anti-C5 antibody in the ELISA
Description: cross reactivity, capture ELISA with anti-C5 capture antibody, anti-His detection.

The target of test [17] is T3, human C3d. The experiment in a line: cross reactivity, ELISA on C3d, anti-His detection.

T1 sequence (P01024 23-667 P314L, chain 1 of 2): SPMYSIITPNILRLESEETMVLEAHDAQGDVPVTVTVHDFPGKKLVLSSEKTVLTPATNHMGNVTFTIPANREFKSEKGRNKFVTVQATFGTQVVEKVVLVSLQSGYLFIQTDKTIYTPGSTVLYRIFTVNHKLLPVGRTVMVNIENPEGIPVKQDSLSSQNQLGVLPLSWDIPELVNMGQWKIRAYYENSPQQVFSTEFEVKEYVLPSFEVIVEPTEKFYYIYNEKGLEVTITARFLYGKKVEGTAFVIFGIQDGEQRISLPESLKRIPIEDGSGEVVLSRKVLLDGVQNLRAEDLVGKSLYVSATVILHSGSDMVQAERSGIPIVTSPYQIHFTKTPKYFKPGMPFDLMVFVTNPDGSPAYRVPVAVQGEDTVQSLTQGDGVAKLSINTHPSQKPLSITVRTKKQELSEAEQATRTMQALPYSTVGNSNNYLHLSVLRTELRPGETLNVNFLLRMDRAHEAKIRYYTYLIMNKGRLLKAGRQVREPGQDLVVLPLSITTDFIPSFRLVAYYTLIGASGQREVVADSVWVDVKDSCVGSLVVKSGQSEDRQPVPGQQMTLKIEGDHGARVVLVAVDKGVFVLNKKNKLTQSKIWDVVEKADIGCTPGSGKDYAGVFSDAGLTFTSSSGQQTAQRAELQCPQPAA
T1 sequence (P01024 749-1663, chain 2 of 2): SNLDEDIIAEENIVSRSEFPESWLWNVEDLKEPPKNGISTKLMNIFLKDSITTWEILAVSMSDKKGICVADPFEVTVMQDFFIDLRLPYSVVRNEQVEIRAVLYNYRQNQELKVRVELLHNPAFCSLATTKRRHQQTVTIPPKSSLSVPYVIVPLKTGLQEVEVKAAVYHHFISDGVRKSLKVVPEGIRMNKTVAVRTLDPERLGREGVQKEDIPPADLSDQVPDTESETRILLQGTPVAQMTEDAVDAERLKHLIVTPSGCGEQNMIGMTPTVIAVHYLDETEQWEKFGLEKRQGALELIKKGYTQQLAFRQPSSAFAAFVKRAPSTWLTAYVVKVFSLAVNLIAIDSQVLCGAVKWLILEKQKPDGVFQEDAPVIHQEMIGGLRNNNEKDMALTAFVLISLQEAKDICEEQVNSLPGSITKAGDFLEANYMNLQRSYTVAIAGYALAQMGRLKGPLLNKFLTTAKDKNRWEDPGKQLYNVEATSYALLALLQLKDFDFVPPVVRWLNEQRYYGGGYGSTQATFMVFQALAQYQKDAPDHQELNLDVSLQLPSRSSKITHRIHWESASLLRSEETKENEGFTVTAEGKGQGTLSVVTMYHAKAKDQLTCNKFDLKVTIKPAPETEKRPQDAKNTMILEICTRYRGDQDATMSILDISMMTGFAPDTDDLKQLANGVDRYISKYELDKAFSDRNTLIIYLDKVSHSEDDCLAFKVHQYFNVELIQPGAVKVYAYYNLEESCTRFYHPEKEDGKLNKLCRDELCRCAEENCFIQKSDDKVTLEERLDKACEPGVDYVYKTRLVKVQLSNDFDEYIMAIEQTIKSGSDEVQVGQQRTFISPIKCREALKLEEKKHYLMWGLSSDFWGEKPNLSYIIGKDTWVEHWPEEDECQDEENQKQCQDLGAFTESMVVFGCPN
T3 sequence (P01024 1002-1303 limits assumed): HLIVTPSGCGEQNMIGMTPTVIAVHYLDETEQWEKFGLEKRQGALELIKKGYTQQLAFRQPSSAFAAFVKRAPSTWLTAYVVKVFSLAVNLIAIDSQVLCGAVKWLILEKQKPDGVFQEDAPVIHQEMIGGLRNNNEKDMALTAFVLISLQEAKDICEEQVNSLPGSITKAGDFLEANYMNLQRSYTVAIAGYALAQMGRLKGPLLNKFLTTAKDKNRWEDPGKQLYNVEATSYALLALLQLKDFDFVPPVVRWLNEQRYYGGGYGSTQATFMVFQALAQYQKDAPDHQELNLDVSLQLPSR
T4 sequence (P01031 19-673 limits assumed, chain 1 of 2): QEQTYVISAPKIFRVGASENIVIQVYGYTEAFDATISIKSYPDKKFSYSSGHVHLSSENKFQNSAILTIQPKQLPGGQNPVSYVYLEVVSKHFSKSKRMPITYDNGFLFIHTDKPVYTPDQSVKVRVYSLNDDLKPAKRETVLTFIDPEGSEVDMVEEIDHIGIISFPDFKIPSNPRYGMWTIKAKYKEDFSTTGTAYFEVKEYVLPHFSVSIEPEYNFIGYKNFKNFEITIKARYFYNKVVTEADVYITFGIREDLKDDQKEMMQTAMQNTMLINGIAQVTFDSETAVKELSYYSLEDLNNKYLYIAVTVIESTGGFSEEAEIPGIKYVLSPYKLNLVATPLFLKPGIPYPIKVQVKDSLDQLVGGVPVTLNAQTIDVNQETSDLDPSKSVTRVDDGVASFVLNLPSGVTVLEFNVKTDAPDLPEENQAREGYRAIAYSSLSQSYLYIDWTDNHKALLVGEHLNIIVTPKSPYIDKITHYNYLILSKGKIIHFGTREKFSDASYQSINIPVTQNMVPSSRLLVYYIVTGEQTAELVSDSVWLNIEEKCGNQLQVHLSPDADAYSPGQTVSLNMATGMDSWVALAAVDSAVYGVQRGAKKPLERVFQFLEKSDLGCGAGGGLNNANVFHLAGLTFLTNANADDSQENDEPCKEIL
T4 sequence (P01031 678-1676 limits assumed, chain 2 of 2): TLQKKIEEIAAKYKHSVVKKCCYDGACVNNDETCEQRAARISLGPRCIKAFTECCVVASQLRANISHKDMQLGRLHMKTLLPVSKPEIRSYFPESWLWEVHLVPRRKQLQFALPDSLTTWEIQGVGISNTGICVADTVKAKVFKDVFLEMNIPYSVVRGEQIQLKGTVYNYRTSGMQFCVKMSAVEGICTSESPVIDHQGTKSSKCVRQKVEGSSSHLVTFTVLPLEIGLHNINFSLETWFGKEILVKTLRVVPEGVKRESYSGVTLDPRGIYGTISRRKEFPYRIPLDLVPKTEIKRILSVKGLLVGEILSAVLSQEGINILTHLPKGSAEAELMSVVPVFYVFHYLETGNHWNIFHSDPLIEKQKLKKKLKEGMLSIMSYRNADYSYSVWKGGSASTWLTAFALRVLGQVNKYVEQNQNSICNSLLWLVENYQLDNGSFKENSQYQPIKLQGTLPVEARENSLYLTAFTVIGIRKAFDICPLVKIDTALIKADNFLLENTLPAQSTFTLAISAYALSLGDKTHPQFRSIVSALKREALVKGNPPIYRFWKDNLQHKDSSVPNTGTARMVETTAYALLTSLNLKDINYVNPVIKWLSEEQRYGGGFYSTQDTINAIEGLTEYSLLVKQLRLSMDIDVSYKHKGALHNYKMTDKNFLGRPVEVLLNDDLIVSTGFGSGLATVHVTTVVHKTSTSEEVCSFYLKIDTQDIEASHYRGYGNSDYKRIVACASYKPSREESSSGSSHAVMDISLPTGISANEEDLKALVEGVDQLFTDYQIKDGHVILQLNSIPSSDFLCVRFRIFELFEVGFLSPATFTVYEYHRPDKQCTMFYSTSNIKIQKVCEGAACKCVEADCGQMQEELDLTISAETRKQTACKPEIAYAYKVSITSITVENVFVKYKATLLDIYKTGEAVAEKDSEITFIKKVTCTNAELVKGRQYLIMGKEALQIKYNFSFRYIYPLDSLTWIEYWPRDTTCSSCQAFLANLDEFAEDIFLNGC

B1: MOR09556 IgG (antibody, V domains shown)
VH: EVQLVESGGGLVQPGGSLRLSCAASGFTFSSYWMTWVRQAPGKGLEWVSSIKIKPDGYAASVKGRFTISRDNSKNTLYLQMNSLRAEDTAVYYCARLFYQYFARMDYWGQGTLVTVSS
VL: DIQMTQSPSSLSASVGDRVTITCRASQDISNYLNWYQQKPGKAPKLLIYAASNLQSGVPSRFSGSGSGTDFTLTISSLQPEDFATYYCQQYDSYSPTFGQGTKVEIKR
notes: Germlined human IgG1 with leucines 234 and 235 changed to alanines, kappa; also called antibody 9556
On to B1, for which the “IC50 (read off the curve)” value in test [1] was ~0.04 nM. In addition, in test [2], binding was characterised by a dissociation constant (Kd) of 0.0102 nM, the koff is 4.67e-05 s⁻¹ and the kon amounted to 4.57e+06 M⁻¹ s⁻¹. In [3], this molecule showed a Kd of 0.0001 nM, a koff of 3.21e-07 s⁻¹ and a kon of 3.21e+06 M⁻¹ s⁻¹. In addition, the “EC50 (read off the curve)” value in test [4] is ~0.08 nM. For the same molecule, in test [5], the “fold binding selectivity for C3b over C3” value is 1000 fold. For the same molecule, the “IC50 (read off the curve)” value in [6] is ~0.05 nM. In addition, the binding result in test [7] is given as “no binding (tested: 100 nM)”. The molecule also had an EC50 in test [8] of 300 nM. In test [9], the “MAC deposition on zymosan, IC50” value was ≤ 5 nM; the “hemolysis of rabbit red blood cells, 10% human or cynomolgus serum, IC50” value is ≤ 50 nM; the “inhibition of C3a and C5a generation during hemolysis, IC50” value is ≤ 50 nM.

B2: MOR9610 Fab format (Fab, V domains shown)
VH: EVQLVQSGAEVKKPGSSVKVSCKASGGTFSSYTFSWVRQAPGQGLEWMGNILPIFGDANYAQKFQGRVTITADESTSTAYMELSSLRSEDTAVYYCARNKGAFYYMSTYPSLDVWGQGTLVTVSS
VL: DIQMTQSPSSLSASVGDRVTITCRASQNINYYLNWYQQKPGKAPKLLIYDAFSLQSGVPSRFSGSGSGTDFTLTISSLQPEDFATYYCQQSIAVPPFTFGQGTKVEIK
Molecule B2 came in with a Kd in [10] of 0.006 nM. This molecule gave a dissociation constant (Kd) in test [11] of 0.018 nM. Also, the Kd in test [12] was determined as 0.07 nM. The same molecule returned a Kd in [13] of 0.114 nM. In test [14], the “C3b Dep (nM), cyno serum, IC50” value is 39 nM; the “HA (nM), 10% cyno serum, IC50” value is 64 nM; the “MAC Dep (nM), cyno serum, IC50” value was determined as 18 nM. In [15], the “C3a (nM), human, inhibition of C3a generation” value turned out to be 66 nM; the “C3b Dep (nM), human serum, IC50” value came out at 20 nM; the “C5a (nM), human, inhibition of C5a generation” value turned out to be 34 nM; the “HA (nM), 10% human serum, IC50” value is 63 nM. In test [15], the “MAC Dep (nM), human serum, IC50” value stood at 4 nM. For the same molecule, in [16], the binding result is recorded as “no binding”. In addition, the binding result in test [17] is given as “no binding”.

Values taken from patent publication US20100291106A1 (Novartis, published 2010).
